From the supplement of paper PMC11246515
± gives the standard deviation of the averaged measurements.

Assay: total protein half-life in vivo (active degradation + dilution); higher = more stable protein
[1] = E. coli NCM3722 delta-clpP delta-lon delta-hslV, growth: N-lim chemostat, doubling time 6 h
[2] = E. coli NCM3722 delta-clpP, growth: N-lim chemostat, doubling time 6 h
[3] = E. coli NCM3722 delta-hslV, growth: N-lim chemostat, doubling time 6 h
[4] = E. coli NCM3722 delta-lon, growth: N-lim chemostat, doubling time 6 h
[5] = E. coli NCM3722 delta-smpB, growth: N-lim chemostat, doubling time 6 h
[6] = wild type E. coli NCM3722, growth: C-lim chemostat, doubling time 3 h
[7] = wild type E. coli NCM3722, growth: C-lim chemostat, doubling time 6 h
[8] = wild type E. coli NCM3722, growth: C-lim chemostat, doubling time 12 h
[9] = wild type E. coli NCM3722, growth: N-lim chemostat, doubling time 6 h
[10] = wild type E. coli NCM3722, growth: N-lim chemostat, doubling time 12 h
[11] = wild type E. coli NCM3722, growth: P-lim chemostat, doubling time 6 h
[12] = wild type E. coli NCM3722, growth: P-lim chemostat, doubling time 12 h

Sequence | total protein half-life in vivo [1] | total protein half-life in vivo [2] | total protein half-life in vivo [3] | total protein half-life in vivo [4] | total protein half-life in vivo [5] | total protein half-life in vivo [6] | total protein half-life in vivo [7] | total protein half-life in vivo [8] | total protein half-life in vivo [9] | total protein half-life in vivo [10] | total protein half-life in vivo [11] | total protein half-life in vivo [12]
MPRANEIKKGMVLNYNGKLLLVKDIDIQSPTARGAATLYKMRFSDVRTGLKVEERFKGDDIVDTVTLTRRYVDFSYVDGNEYVFMDKEDYTPYTFTKDQIEEELLFMPEGGMPDMQVLTWDGQLLALELPQTVDLEIVETAPGIKGASASARNKPATLSTGLVIQVPEYLSPGEKIRIHIEERRYMGRAD [P0A6N8] | 5.17 ± 0.42 h | 4.37 ± 0.34 h | 4.21 ± 0.071 h | 5.35 ± 0.38 h | 4.45 ± 0.71 h | 3.25 ± 0.46 h | 5.42 ± 0.098 h | 11.1 ± 0.96 h | 4.59 ± 0.062 h | 6.944 ± 0.044 h | 5.26 ± 0.26 h | 9.67 ± 0.66 h
MPRFFTRHAATLFFPMALILYDFAAYLSTDLIQPGIINVVRDFNADVSLAPAAVSLYLAGGMALQWLLGPLSDRIGRRPVLITGALIFTLACAATMFTTSMTQFLIARAIQGTSICFIATVGYVTVQEAFGQTKGIKLMAIITSIVLIAPIIGPLSGAALMHFMHWKVLFAIIAVMGFISFVGLLLAMPETVKRGAVPFSAKSVLRDFRNVFCNRLFLFGAATISLSYIPMMSWVAVSPVILIDAGSLTTSQFAWTQVPVFGAVIVANAIVARFVKDPTEPRFIWRAVPIQLVGLSLLIVGNLLSPHVWLWSVLGTSLYAFGIGLIFPTLFRFTLFSNKLPKGTVSASLNMVILMVMSVSVEIGRWLWFNGGRLPFHLLAVVAGVIVVFTLAGLLNRVRQHQAAELVEEQ |  | 7.03 h |  |  |  |  |  |  |  |  |  | 
MPSAHSVKLRPLEREDLRYVHQLDNNASVMRYWFEEPYEAFVELSDLYDKHIHDQSERRFVVECDGEKAGLVELVEINHVHRRAEFQIIISPEYQGKGLATRAAKLAMDYGFTVLNLYKLYLIVDKENEKAIHIYRKLGFSVEGELMHEFFINGQYRNAIRMCIFQHQYLAEHKTPGQTLLKPTAQ [P0A951] | 5.494 ± 0.021 h | 6.01 ± 1.7 h | 5.04 ± 1.1 h |  | 5.16 ± 0.071 h | 2.7 ± 0.18 h | 5.17 ± 0.15 h | 10.5 ± 0.81 h | 4.92 ± 0.18 h | 9.78 ± 1.9 h | 5.06 ± 0.2 h | 11.6 ± 0.61 h
MPSFDIVSEVDLQEARNAVDNASREVESRFDFRNVEASFELNDASKTIKVLSESDFQVNQLLDILRAKLLKRGIEGSSLDVPENIVHSGKTWFVEAKLKQGIESATQKKIVKMIKDSKLKVQAQIQGDEIRVTGKSRDDLQAVMAMVRGGDLGQPFQFKNFRD [P0A8E7] | 6.17 ± 0.16 h | 6.38 ± 1 h | 5.06 ± 0.27 h | 6.83 ± 0.4 h | 5.85 ± 0.38 h | 3.18 ± 0.28 h | 6.22 ± 1.1 h | 10.7 ± 0.25 h | 4.32 ± 0.57 h | 8.82 ± 1 h | 5.06 ± 1.4 h | 12.7 ± 1.6 h
MPSIRLADLAQQLDAELHGDGDIVITGVASMQSAQTGHITFMVNPKYREHLGLCQASAVVMTQDDLPFAKSAALVVKNPYLTYARMAQILDTTPQPAQNIAPSAVIDATAKLGNNVSIGANAVIESGVELGDNVIIGAGCFVGKNSKIGAGSRLWANVTIYHEIQIGQNCLIQSGTVVGADGFGYANDRGNWVKIPQIGRVIIGDRVEIGACTTIDRGALDDTIIGNGVIIDNQCQIAHNVVIGDNTAVAGGVIMAGSLKIGRYCMIGGASVINGHMEICDKVTVTGMGMVMRPITEPGVYSSGIPLQPNKVWRKTAALVMNIDDMSKRLKSLERKVNQQD | 6.07 ± 0.77 h | 6.31 ± 1.8 h | 5.56 ± 0.47 h | 5.67 ± 0.27 h | 5.17 ± 0.14 h | 2.94 ± 0.27 h | 5.58 ± 0.18 h | 12.2 ± 1.4 h | 5.06 ± 0.12 h | 9.29 ± 0.54 h | 5.9 ± 0.48 h | 12.7 ± 0.47 h
MPSLSKEAALVHEALVARGLETPLRPPVHEMDNETRKSLIAGHMTEIMQLLNLDLADDSLMETPHRIAKMYVDEIFSGLDYANFPKITLIENKMKVDEMVTVRDITLTSTCEHHFVTIDGKATVAYIPKDSVIGLSKINRIVQFFAQRPQVQERLTQQILIALQTLLGTNNVAVSIDAVHYCVKARGIRDATSATTTTSLGGLFKSSQNTRHEFLRAVRHHN [P0A6T5] | 2.49 ± 0.12 h | 1.56 ± 0.27 h | 1.5 ± 0.11 h | 1.82 ± 0.16 h | 1.65 ± 0.21 h | 2.81 ± 0.23 h | 3.46 ± 0.48 h | 5.29 ± 0.21 h | 1.89 ± 0.34 h | 2.02 ± 0.14 h | 4.46 ± 0.21 h | 8.1 ± 0.27 h
